This note sets out measurements from US6432920B1, “Nck SH3 binding peptides” (Cytogen Corporation, priority 1994, dated 2002).

The target in experiment [1] is T1, Src SH3-GST (Homo sapiens, UniProt P12931).
T1 construct: Bacterially expressed Src SH3 glutathione-S-transferase (Src-GST) fusion protein was purified from bacterial lysates; made in house; host or cells: bacteria (pGEX vector)
As to the kind of experiment: Phage clone binding to immobilized GST-SH3 (elution titering / anti-phage ELISA). The settings on record: FIG. 14. The protocol:
Library screens were performed as previously described. Kay, B. K., et al., in Gene (1993) 128:59-65. Briefly, 1'10^11 pfu TSAR 9, TSAR 12, or R8C phage in Buffer A were incubated in a Src SH3-GST-coated well for 2 hours. The wells were washed, and bound phage were eluted with 100 μL 50 mM glycine-HCl (pH 2.2), transferred to a new well, and neutralized with […] 200 mM NaHPO4 (pH 7.0). Recovered phage were used to infect 1×10^9 DH5αF′ E. coli cells in 20 mL 2×YT; the infected cells were grown overnight, resulting in a 1000- to 10,000-fold amplification of phage titer. Amplified phage were panned twice more, as above, excepting the amplification step. Binding phage recovered after the third round of panning were plated at a low density on a lawn of DH5αF′ E. coli cells to yield isolated plaques for clonal analysis. […]
Indeed, the ability of isolated phage clones to bind to several SH3 domains derived from a variety of different proteins can be investigated by the manner described above. […] From these experiments, the relative specificity of different Src SH3 binding clones for SH3 domains derived from other proteins is determined.
To evaluate the binding of isolates to various targets proteins, enzyme-linked-immuno-assays (ELISA) were also performed. […] Plates are read with a plate reader (Molecular Devices, Menlo Park, Calif.) at 405 nm wavelength. […]

The target of a further experiment is T2, Yes SH3 (Homo sapiens, UniProt P07947).
T2 construct: a construct expressing the SH3 domain of Yes was obtained from Dr. Marius Sudol (Rockefeller University); made in house; host or cells: bacteria (pGEX vector)
T2 sequence (P07947 91-152 limits assumed): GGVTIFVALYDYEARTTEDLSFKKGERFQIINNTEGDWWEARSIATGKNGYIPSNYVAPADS
The experiment is described as follows: Phage clone binding to immobilized GST-SH3 (anti-phage ELISA). The settings on record: FIG. 14. The protocol:
Indeed, the ability of isolated phage clones to bind to several SH3 domains derived from a variety of different proteins can be investigated by the manner described above. GST-SH3 fusion proteins containing SH3 domains from a variety of different proteins are bound to microliter wells. An aliquot of the aforementioned phage stocks (50 μL) is introduced into wells containing the different GST-SH3 fusion proteins. […] From these experiments, the relative specificity of different Src SH3 binding clones for SH3 domains derived from other proteins is determined.
To evaluate the binding of isolates to various targets proteins, enzyme-linked-immuno-assays (ELISA) were also performed. […] Plates are read with a plate reader (Molecular Devices, Menlo Park, Calif.) at 405 nm wavelength.
Library screens were performed as described in Sparks, A., B., et al., in Methods in Enzymology, (1995) 255:498-509. […] The wells were washed five times with PBS+0.1% Tween 20, and bound phage were detected by anti-phage ELISA according to the manufacturer's instructions (Pharmacia, Piscataway, N.J.). […]
To explore further the capacity of SH3 domains to discriminate between different SH3 ligands, we investigated the binding of phage expressing various peptide ligands to a panel of SH3 domains. […] The wells were washed several times, and bound phage were detected with an anti-phage antibody (see FIG. 14). […]
(ELISA stands for enzyme-linked immunosorbent assay.)

Experiment [2] has as its target T1, Src SH3-GST. As to the kind of experiment: Biotinylated synthetic peptide binding ELISA to immobilized Src SH3-GST. The settings on record: not tested.

With MPPPVPPRPPGTL, the “cross-reactivity of Src SH3 domain with phage clone selected with another SH3 domain” value with Src SH3-GST [1] is “cross-reacted”. Moreover, the “cross-reactivity of Yes SH3 domain with phage clone selected with another SH3 domain” value with Yes SH3 was “cross-reacted”.
For the sequence RSTPAPPVPPRTTR, the “surmised binding to a variety of SH3 domains” value in the experiment with Src SH3-GST [2] is “strong but generic binding”.
